Laboratory results from publication PMC7865317, “Coupling of a Novel TIMP3 Peptide to Carboxypeptidase G2 for Pro-Drug Activation at the Tumour Site” (Molecules, 2021).

Target: T1, VEGFR2-immunoglobulin Fc fusion protein (UniProt P35968 20-764)
T1 construct: VEGFR2 (vascular endothelial growth factor receptor 2); Probably the extracellular domain of VEGFR2 fused to an IgG Fc, as sold by R&D Systems (surmise); also called VEGFR2-Fc; source: bought: R&D Systems
Assay: BLI; BLItz system; VEGFR2-Fc (5 uL at 250 ug/mL) loaded on protein A-coated probes for 300 s; CPG2 or CPG2-p700 in the drop holder, five runs at 600 nM to 10 uM; PBS
Details: both partners purified

T1 sequence (P35968 20-764): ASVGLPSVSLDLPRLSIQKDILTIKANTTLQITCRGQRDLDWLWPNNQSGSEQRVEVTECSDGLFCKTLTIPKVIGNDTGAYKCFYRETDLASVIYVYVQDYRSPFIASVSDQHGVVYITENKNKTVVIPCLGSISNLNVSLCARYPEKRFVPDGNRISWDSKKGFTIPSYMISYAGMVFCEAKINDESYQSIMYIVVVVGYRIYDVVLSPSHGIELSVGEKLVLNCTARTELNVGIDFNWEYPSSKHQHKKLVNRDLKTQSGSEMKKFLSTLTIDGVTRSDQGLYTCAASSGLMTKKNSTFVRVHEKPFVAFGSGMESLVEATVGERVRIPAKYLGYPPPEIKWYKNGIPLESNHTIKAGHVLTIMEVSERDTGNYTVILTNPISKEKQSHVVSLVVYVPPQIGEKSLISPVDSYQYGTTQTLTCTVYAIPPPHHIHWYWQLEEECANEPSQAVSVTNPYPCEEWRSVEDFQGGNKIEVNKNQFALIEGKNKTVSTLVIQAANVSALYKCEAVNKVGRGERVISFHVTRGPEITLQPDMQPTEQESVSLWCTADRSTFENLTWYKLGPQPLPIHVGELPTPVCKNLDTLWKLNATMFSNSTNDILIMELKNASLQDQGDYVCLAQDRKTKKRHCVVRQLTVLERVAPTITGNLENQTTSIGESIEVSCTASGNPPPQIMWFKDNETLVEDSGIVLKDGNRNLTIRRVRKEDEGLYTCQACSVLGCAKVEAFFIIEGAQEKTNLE

B1: recombinant codon-optimised carboxypeptidase G2 (CPG2-His) (enzyme, Pseudomonas aeruginosa strain RS-16, UniProt P06621 23-415, looked up)
chain: ALAQKRDNVLFQAATDEQPAVIKTLEKLVNIETGTGDAEGIAAAGNFLEAELKNLGFTVTRSKSAGLVVGDNIVGKIKGRGGKNLLLMSHMDTVYLKGILAKAPFRVEGDKAYGPGIADDKGGNAVILHTLKLLKEYGVRDYGTITVLFNTDEEKGSFGSRDLIQEEAKLADYVLSFEPTSAGDEKLSLGTSGIAYVQVNITGKASHAGAAPELGVNALVEASDLVLRTMNIDDKAKNLRFNWTIAKAGNVSNIIPASATLNADVRYARNEDFDAAMKTLEERAQQKKLPEADVKVIVTRGRPAFNAGEGGKKLVDKAVAYYKEAGGTLGVEERTGGGTDAAYAALSGKPVIESLGLPGFGYHSDKAEYVDISAIPRRLYMAARLIMDLGAGK
notes: carboxypeptidase G2 (CPG2, glucarpidase), gene codon optimised for E. coli (Goda et al. 2009), approximately 1200 bp; Expected size 45 kDa; Cloned NdeI/NotI into pET28a, which may add an N-terminal His tag from the vector (surmise); construct in Supplementary Data S1; also called CPG2 alone; CPG2-only; source: E. coli BL21 (DE3), purified by Ni2+-NTA chromatography from pooled 2 M urea washes of …
Kd: 15 µM
